# Measurements: article PMC6271572, “One-step affinity purification of fusion proteins with optimal monodispersity and biological activity: application to aggregation-prone HPV E6 proteins” (Microbial Cell Factories, 2018)
# Several values for one entry are separate records, joined by “and”; a condition that tells them apart may be missing. Equal values may be shown once.
# B1: MBP-fused HPV8 E6 (natural protein)
# chain: MDGQDKASNLDTNKDELPSTIKELAEALGIPLQDCLVPCNFCGNFLDFLELCEFDKKRLCLIWKNYVVTACCRCCCVATATFEFNEYYEQTVLGRDIELATGRSIFEIDVRCQNCLSFLDIIEKLDCCGRGRPFHKVRGGWKGVCRLCKHLYHDW
# notes: Printed order of the fusion: MBP-6His-TEV site-E6 (vector pETM-41, NcoI/Acc65I sites); tags were not cleaved off; Expected MW 60.9 kDa; also called MBP-8E6; not shown: MBP, N-terminal, kept
# Experiments:
# [1] = molecular target: E6AP LXXLL motif (Homo sapiens) (UniProt Q05086); test: SPR; conditions: cited from earlier work
# [2] = molecular target: E6APwt, 16-mer LXXLL motif peptide of E6AP; test: SPR; Biacore T200, 25 °C; biotinylated peptide reversibly captured on CAP chip (Biotin CAPture kit), MBP-E6 as analyte in two-fold dilutions from 10 µM; Tris 50 mM pH 8, NaCl 400 mM, DTT 2 mM, 0.005% polysorbate 20; steady-state analysis, 1:1 model; protein samples purified on resin N1 or N2
# [3] = molecular target: the molecule itself; test: SEC; analytical SEC on Superdex 200 Increase 5/150 GL in Buffer A (Tris 50 mM pH 8, NaCl 400 mM, DTT 2 mM), A280; monomer and oligomer peaks assigned by column calibration; samples from different resins, elution methods and contact times
molecule,measurement,setting,value
HPV16 E6 (from UniProt P03126),Kd,[1],4150 nM
MBP-fused HPV16 E6 F47R 4C/4S (natural protein),Kd,[2],1600 nM and 2000 nM
B1,binding result,[3],binds
